Assay results reported in patent US20220098305A1 (Hoffmann-La Roche, published 2022).

T1: human ICOS (human, UniProt Q9Y6W8 21-199)
T1 construct: The cell that carries it is named under assay; also called huICOS; CD278
T1 sequence: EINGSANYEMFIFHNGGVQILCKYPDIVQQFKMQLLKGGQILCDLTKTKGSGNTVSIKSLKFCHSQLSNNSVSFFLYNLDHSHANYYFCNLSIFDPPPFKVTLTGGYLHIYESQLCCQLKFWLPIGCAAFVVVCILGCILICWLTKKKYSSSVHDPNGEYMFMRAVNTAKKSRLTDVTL


Experiments:
[1] = biological target: T2, human FAP (human, UniProt Q12884 1-760); test: flow cytometry, NIH/3T3-huFAP clone 19 cells
T2 construct: also called hu FAP

[2] = biological target: T1, human ICOS; test: flow cytometry on SR cells expressing human ICOS, geometric MFI
[3] = biological target: T1, human ICOS; test: flow cytometry, SR cells
[4] = biological target: T1, human ICOS; test: cell-based or functional assay
[5] = biological target: T1, human ICOS; test: flow cytometry on CHO cells expressing human ICOS, PE-labelled secondary antibody; y axis printed LOG10(MFI PE)
[6] = biological target: T1, human ICOS; test: flow cytometry, CHO cells expressing human ICOS
[7] = biological target: T1, human ICOS; test: flow cytometry, CHO cells expressing human ICOS; remark: listed apart in the source
Description: (§1) Briefly, suspension cells were harvested, counted, checked for viability and re-suspended at 1 million cells per ml in FACS buffer (PBS with 0.1% BSA). […] The staining was fixed for 20 min at 4° C. in the dark, using 75 μl of 1% PFA in FACS buffer per well.
(§2) Fluorescence was analyzed by FACS using a FACS Fortessa (Software FACS Diva). Binding curves and EC50 values were obtained using GraphPadPrism 7.

[8] = biological target: T1, human ICOS; test: flow cytometry on CHO cells stably expressing human ICOS, PE-labelled secondary antibody, median fluorescence intensity (MFI)
Description: as §1, §2

[9] = biological target: T1, human ICOS; test: flow cytometry on CHO cells expressing human ICOS, PE-labelled secondary antibody; y axis printed LOG10(MFI PE); remark: listed apart in the source

| Binder | EC50 [1] | EC50 (read off the curve) [2] | EC50 [3] | EC50 of activation of Jurkat-NFAT reporter cell line [4] | Max (Counts/sec), Jurkat-NFAT reporter cell line [4] | EC50 (read off the curve) [5] | EC50 [6] | Max (Log10(MFI)) [6] | EC50 [7] | EC50 (read off the curve) [8] | EC50 (read off the curve) [9] |
| --- | --- | --- | --- | --- | --- | --- | --- | --- | --- | --- | --- |
| Molecule 21, bispecific 2+1 anti-ICOS (1143v1)/anti-FAP (4B9) huIgG1 P329GLALA kih (bispecific antibody) heavy 1: QSLEESGGDLVKPGASLTLTCKASGFDFSSAYDMSWVRQAPGKGLEWIGVVYYGDGITYYATWAKGRFTISKTSSTTVPLQMTSLTAADTATYFCARGAFLGSSYYLSLWGQGTLVTVSSASTKGPSVFPLAPSSKSTSGGTAALGCLVKDYFPEPVTVSWNSGALTSGVHTFPAVLQSSGLYSLSSVVTVPSSSLGTQTYICNVNHKPSNTKVDKKVEPKSCDKTHTCPPCPAPEAAGGPSVFLFPPKPKDTLMISRTPEVTCVVVDVSHEDPEVKFNWYVDGVEVHNAKTKPREEQYNSTYRVVSVLTVLHQDWLNGKEYKCKVSNKALGAPIEKTISKAKGQPREPQVCTLPPSRDELTKNQVSLSCAVKGFYPSDIAVEWESNGQPENNYKTTPPVLDSDGSFFLVSKLTVDKSRWQQGNVFSCSVMHEALHNHYTQKSLSLSPGGGGGSGGGGSGGGGSGGGGSEIVLTQSPGTLSLSPGERATLSCRASQSVTSSYLAWYQQKPGQAPRLLINVGSRRATGIPDRFSGSGSGTDFTLTISRLEPEDFAVYYCQQGIMLPPTFGQGTKVEIK heavy 2: not shown light: AIDMTQTPASVEAAVGGTVTINCQASENIYNWLAWYQQKPGQPPKLLIYDASKLASGVPSRFSASGSGTQFTLTISAVESADAATYYCQQAYTYGNIDNAFGGGTEVVVSRTVAAPSVFIFPPSDEQLKSGTASVVCLLNNFYPREAKVQWKVDNALQSGNSQESVTEQDSKDSTYSLSSTLTLSKADYEKHKVYACEVTHQGLSSPVTKSFNRGEC | 0.00501 nM | ~0.5 nM | 0.00057 nM |  |  |  |  |  |  |  |  |
| Molecule 1 (JMab136 IgG) (antibody, V domains shown, IgG) VH: not shown VL: DIQMTQSPSSVSASVGDRVTITCRASQGISRLLAWYQQKPGKAPKLLIYVASSLQSGVPSRFSGSGSGTDFTLTISSLQPEDFATYYCQQANSFPWTFGQGTKVEIK |  |  |  |  |  |  |  |  | 0.0023 nM | ~2 nM |  |
| Molecule 29 (ICOS H1143v2_1) (antibody, human IgG1, kappa, L234A L235A, V domains shown, Human IgG format) VH: EVQLLESGGGLVQPGGSLRLSCAASGFDFSSAYDMSWVRQAPGKGLEWVSVIYYGDGITYYADSVKGRFTISRDNSKNTLYLQMNSLRAEDTAVYFCARGAFLGSSYYLSLWGQGTLVTVSS VL: DIQMTQSPSSLSASVGDRVTITCRASENIYNWLAWYQQKPGKAPKLLIYDASKLASGVPSRFSGSGSGTDFTLTISSLQPEDFATYYCQQAYTYGNIDNAFGGGTKVEIKR |  |  |  | 27.6 nM | 63800 Counts/sec | ~6 nM | 5.2 nM | 2.38 Log10(MFI) |  |  |  |
| Molecule 30 (ICOS H1143v2_2) (antibody, human IgG1, kappa, L234A L235A, V domains shown, Human IgG format) VH: EVQLLESGGGLVQPGGSLRLSCAASGFDFSSAYDMSWVRQAPGKGLEWVSVIYYGDGITYYADSVKGRFTISKTSSKTTLYLQMNSLRAEDTAVYFCARGAFLGSSYYLSLWGQGTLVTVSS VL: DIQMTQSPSSLSASVGDRVTITCRASENIYNWLAWYQQKPGKAPKLLIYDASKLASGVPSRFSGSGSGTDFTLTISSLQPEDFATYYCQQAYTYGNIDNAFGGGTKVEIKR |  |  |  | 29.4 nM | 55300 Counts/sec | ~2 nM | 2.25 nM | 2.75 Log10(MFI) |  |  |  |
| Molecule 33 (ICOS H1138_1) (antibody, human IgG1, kappa, L234A L235A, V domains shown, Human IgG format) VH: EVQLLESGGGLVQPGGSLRLSCAASGFDLSSYYYMSWVRQAPGKGLEWVSSIYADIYGGTTHYASWAKGRFTISKTSSKTTLYLQMNSLRAEDTAVYFCAREDGSRYGGSGYYNLWGQGTLVTVSS VL: DIQMTQSPSSLSASVGDRVTITCRASQNIYSNLAWYQQKPGQPPKLLIYAASYLTSGVPSRFSGSGSGTDFTLTISSLQPEDFATYYCQQGHTTDNIDNAFGGGTKVEIKR |  |  |  | 41.4 nM | 41400 Counts/sec |  | 7.58 nM | 3.89 Log10(MFI) |  |  | ~8 nM |
| Molecule 35 (ICOS H1138_3) (antibody, human IgG1, kappa, L234A L235A, V domains shown, Human IgG format) VH: EVQLLESGGGLVQPGGSLRLSCAASGFDLSSYYYMSWVRQAPGKGLEWVSSIYADIYGGTTHYASWAKGRFTISKTSSTTLYLQMNSLRAEDTAVYFCAREDGSRYGGSGYYNLWGQGTLVTVSS VL: AIQMTQSPSSLSASVGDRVTITCRASQNIYSNLAWYQQKPGKPPKLLIYAASYLTSGVSSRFSGSGSGTDFTLTISSLQPEDFATYYCQQGHTTDNIDNAFGGGTKVEIKR |  |  |  | 99.4 nM | 59500 Counts/sec |  | 2.72 nM | 4.55 Log10(MFI) |  |  | ~3 nM |
| Molecule 32 (ICOS 1138) (antibody, human IgG1, kappa, L234A L235A, V domains shown, Human IgG format; also called parental antibody of Molecules 33-35) VH: QSLEESGGDLVKPGASLTLTCTASGFDLSSYYYMSWVRQAPGKGLEWIASIYADIYGGTTHYASWAKGRFTISKTSSTTVTLQMTSLTAADTATYFCAREDGSRYGGSGYYNLWGPGTLVTVSS VL: ALVMTQTPSSVSAAVGGTVTINCQASQNIYSNLAWYQQKPGQPPKLLIYAASYLTSGVSSRFKGSGAGTQFTLTISGVESADAATYYCQQGHTTDNIDNAFGGGTEVVVKR |  |  |  | 38.7 nM | 28500 Counts/sec |  | 2.12 nM | 4.3 Log10(MFI) |  |  | ~2 nM |

Next, values leading:

| EC50 [1] | EC50 (read off the curve) [2] | EC50 [3] | EC50 of activation of Jurkat-NFAT reporter cell line [4] | Max (Counts/sec), Jurkat-NFAT reporter cell line [4] | EC50 (read off the curve) [5] | EC50 [6] | Max (Log10(MFI)) [6] | EC50 [7] | EC50 (read off the curve) [8] | EC50 (read off the curve) [9] | Binder |
| --- | --- | --- | --- | --- | --- | --- | --- | --- | --- | --- | --- |
| 0.00434 nM | ~2 nM | 0.00217 nM |  |  |  |  |  |  |  |  | Molecule 44, bispecific 2+1 anti-ICOS (1143)/anti-FAP (4B9) huIgG1 P329GLALA kih (bispecific antibody) heavy 1: QSLEESGGDLVKPGASLTLTCKASGFDFSSAYDMSWVRQAPGKGLEWIGSVYYGDGITYYATWAKGRFTISKTSSTTVPLQMTSLTAADTATYFCARGAFLGSSYYLSLWGQGTLVTVSSASTKGPSVFPLAPSSKSTSGGTAALGCLVKDYFPEPVTVSWNSGALTSGVHTFPAVLQSSGLYSLSSVVTVPSSSLGTQTYICNVNHKPSNTKVDKKVEPKSCDKTHTCPPCPAPEAAGGPSVFLFPPKPKDTLMISRTPEVTCVVVDVSHEDPEVKFNWYVDGVEVHNAKTKPREEQYNSTYRVVSVLTVLHQDWLNGKEYKCKVSNKALGAPIEKTISKAKGQPREPQVCTLPPSRDELTKNQVSLSCAVKGFYPSDIAVEWESNGQPENNYKTTPPVLDSDGSFFLVSKLTVDKSRWQQGNVFSCSVMHEALHNHYTQKSLSLSPGGGGGSGGGGSGGGGSGGGGSEIVLTQSPGTLSLSPGERATLSCRASQSVTSSYLAWYQQKPGQAPRLLINVGSRRATGIPDRFSGSGSGTDFTLTISRLEPEDFAVYYCQQGIMLPPTFGQGTKVEIK heavy 2: not shown light: AIDMTQTPASVEAAVGGTVTINCQASENIYNWLAWYQQKPGQPPKLLIYDASKLASGVPSRFSASGSGTQFTLTISAVESADAATYYCQQAYTYGNIDNAFGGGTEVVVSRTVAAPSVFIFPPSDEQLKSGTASVVCLLNNFYPREAKVQWKVDNALQSGNSQESVTEQDSKDSTYSLSSTLTLSKADYEKHKVYACEVTHQGLSSPVTKSFNRGEC |
|  |  |  | 28 nM | 52300 Counts/sec | ~3 nM | 2.56 nM | 4.88 Log10(MFI) |  |  |  | Molecule 28 (ICOS 1143v2) (antibody, human IgG1, kappa, L234A L235A, V domains shown, Human IgG format; also called parent antibody of Molecules 29-31) VH: QSLEESGGDLVKPGASLTLTCKASGFDFSSAYDMSWVRQAPGKGLEWIGVIYYGDGITYYATSVKGRFTISKTSSTTVPLQMTSLTAADTATYFCARGAFLGSSYYLSLWGQGTLVTVSS VL: AIDMTQTPASVEAAVGGTVTINCQASENIYNWLAWYQQKPGQPPKLLIYDASKLASGVPSRFSASGSGTQFTLTISAVESADAATYYCQQAYTYGNIDNAFGGGTEVVVSR |
|  |  |  | 23.2 nM | 52000 Counts/sec | ~2 nM | 1.75 nM | 4.44 Log10(MFI) |  |  |  | Molecule 31 (ICOS H1143v2_3) (antibody, human IgG1, kappa, L234A L235A, V domains shown, Human IgG format) VH: EVQLLESGGGLVQPGGSLRLSCAASGFDFSSAYDMSWVRQAPGKGLEWIGVIYYGDGITYYADSVKGRFTISRDNSNTLYLQMNSLRAEDTAVYFCARGAFLGSSYYLSLWGQGTLVTVSS VL: DIQMTQSPSSLSASVGDRVTITCRASENIYNWLAWYQQKPGKAPKLLIYDASKLASGVPSRFSGSGSGTDFTLTISSLQPEDFATYYCQQAYTYGNIDNAFGGGTKVEIKR |
|  |  |  | 34 nM | 38400 Counts/sec |  | 10.2 nM | 1.91 Log10(MFI) |  |  | ~10 nM | Molecule 34 (ICOS H1138_2) (antibody, human IgG1, kappa, L234A L235A, V domains shown, Human IgG format) VH: EVQLLESGGGLVQPGGSLRLSCAASGFDLSSYYYMSWVRQAPGKGLEWVSSIYADIYGGTTHYASWAKGRFTISRDNSKNTLYLQMNSLRAEDTAVYFCAREDGSRYGGSGYYNLWGQGTLVTVSS VL: AIQMTQSPSSLSASVGDRVTITCRASQNIYSNLAWYQQKPGKPPKLLIYAASYLTSGVSSRFSGSGSGTDFTLTISSLQPEDFATYYCQQGHTTDNIDNAFGGGTKVEIKR |
|  |  |  | ~7.99 nM | 47400 Counts/sec |  | 2.7 nM | 6.85 Log10(MFI) |  |  |  | Molecule 27 (ICOS H009v1_3) (antibody, human IgG1, kappa, L234A L235A, V domains shown, Human IgG format) VH: EVQLVESGGGLVQPGRSLRLSCTASGFTFSDYWMNWVRQAPGKGLEWVAQIRNKPYNYETYYAASVKGRFTISRDDSKSIAYLQMNSLKTEDTAVYYCTWPRLRSSDWHFDVWGKGTTVTVSS VL: DIQMTQSPSSLSASVGDRVTITCQASQDINKNIAWYQQKPGKAPKLLIWYTSTLQTGVPSRFSGSGSGTDFTFTISSLQPEDIATYYCLQFDNLYTFGQGTKLEIKR |
